2 molecules from US7981843 can be followed below.

Usually EC50 (read off the curve) stands for the concentration giving half of the maximal effect. Low readings indicate an effect from little substance, high ones a need for much substance. One may read the Kd as a measure of binding affinity in units of concentration. Read a high Kd as weaker binding. As a reminder, the koff is a measure of how fast the partners let go of each other. Higher therefore signals fast dissociation. One may read the kon as the rate constant with which the complex forms. Read a low kon as slow association.

Experiment [1] deals with PcrV of Pseudomonas aeruginosa strain PA103 (native, on the bacteria) (Pseudomonas aeruginosa). Briefly: cell-based or functional assay.
In experiment [2] the target is GST-PcrV fusion protein (Pseudomonas aeruginosa) [GST: P08515]. Briefly: dilution ELISA, purified Fab in twofold series in duplicate on plates coated with GST-PcrV, TMB A450 (upper chart). Background: In an ELISA, binding on a coated surface is turned into a signal by an enzyme label.
Experiment [3] has the same target. Briefly: SPR, Biacore 3000, GST-PcrV amine-coupled to CM4 chip, Fab in solution. Background: In SPR one partner is held on a chip, and binding of the other changes the refractive index at the surface.

In turn, Mab 166 whole IgG (antibody) gave an IC50, inhibition of Pseudomonas-mediated (TTSS exotoxin-dependent) cytotoxicity to P3-X63-Ag8 cells, propidium iodide flow cytometry in experiment [1] of 93 nM.

B1: Murine Fab M166 (Fab, from another filing, V domains shown)
VH: QVQLKQSGPGLVQPSQSLSITCTVSGFSLTSYGVHWVRQSPGKGLEWLGVIWSGGDTDYNAAFISRLSISKDNSKSQLFFKMNSLRATDTAIYYCARNRGDIYYDFTYAMDYWGQGTSVTVSS
VL: DIQMTQSPASLSASVGETVTITCRASGNIQNYLAWYQQTQGKSPQLLVYSAKTLADGVPSRFSGSGSGTQYSLKINSLQPEDFGSYYCQHFWSTPYTFGGGTKLEIKR
On to B1, for which, in experiment [2], the EC50 (read off the curve) came to 6 nM. For the same molecule, in experiment [3], the Kd was 1.1 nM, the koff was found to be 0.00026 s⁻¹ and the kon came to 249000 M⁻¹ s⁻¹.
